Data published in patent US20150202250A1.

Molecular target: isolated NS2B-NS3 protein complex from the DENV-2 viral genome (Dengue virus type 2 (DENV-2)) (UniProt P14340)
Experiment: cell-based or functional assay

Sequence of UniProt P14340 (P14340 1394-1440 limits assumed, chain 1 of 2): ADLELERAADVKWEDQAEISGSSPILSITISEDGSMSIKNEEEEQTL
Sequence of UniProt P14340 (P14340 1476-1660 limits assumed, chain 2 of 2): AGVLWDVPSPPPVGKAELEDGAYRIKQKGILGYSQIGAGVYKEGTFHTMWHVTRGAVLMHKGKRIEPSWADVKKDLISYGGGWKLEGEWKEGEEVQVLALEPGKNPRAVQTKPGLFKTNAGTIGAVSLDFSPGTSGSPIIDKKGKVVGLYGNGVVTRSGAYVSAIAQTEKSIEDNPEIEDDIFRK

B1: RetroMAD1 (protein)
chain: MGRICRCICGRGICRCICGVPGVGVPGVGGATGSDVNFDLSTATAKTYTKFIEDFRATLPFSHKVYDIPLLYSTISDSRRFILLDLTSYAYETISVAIDVTNVYVVAYRTRDVSYFFKESPPEAYNILFKGTRKITLPYTGNYENLQTAAHKIRENIDLGLPALSSAITTLFYYNAQSAPSALLVLIQTTAEAARFKYIERHVAKYVATNFKPNLAIISLENQWSALSKQIFLAQNQGGKFRNPVDLIKPTGERFQVTNVDSDVVKGNIKLLLNSRASTADENFITTMTLLGESVVEFPWALWKTMLKELGTMALHAGKAALGAAADTISQGTQVPGVGVPGVGKLAAALEHHHHHH
Binder B1 has an inhibition of NS2B-NS3 protease (cleavage of fluorogenic peptide substrate) (% inhibition at 10.8 µM) of 94.3.
